Measured values published in US20130136748A1 (Ablynx, published 2013).
Where a chain is given by its changes, count along the chain named. Names may count otherwise. “And” between values parts separate entries of the source, which are not always exact repeats. Equal entries are not always repeated.

B1: 23F05 (VHH)
VHH: EVQLVESGGGLVQAGGSLRLSCAASGFTFDGYAIGWFRQAPGKEREGVSCISGGDGRSYYADSVKGRFTVSSDNAKNTLYLEMNSLKPEDTAVYYCAVIWGPYCSDSYEYLYEYDYWGQGTQVTVSS
B2: 21B02 (VHH)
VHH: EVQLVESGGGLVQPGGSLRLSCAASGFTFDYYTIGWFRQAPGKEREGVSCISSRDGDSYYADSVKGRFTISRDNAKNTAYLQMNSLKPEDTAVYYCAASASDYGLGLELFHDEYNYWGQGTQVTVSS
B3: HER3MS0050 (VHH)
VHH: EVQLVESGGGLVQPGGSLRLSCAASGTLFKINAMGWYRQAPGKRRELVALITSSDTTDYAESVEGRFTISRDNTWNAVYLQMNSLRPEDTAVYYCHSDHYSMGVPEKRVIMYGQGTLVTVSS
notes: Kabat numbering; also called 18G11 basic variant
B4: HER3MS00211 (VHH)
VHH: B3 VHH with E61D, E64K, T74S, A77T, M102L, M111L
notes: 18G11 second round variant without R44Q (selected)
B5: HER3MS00125 (VHH)
VHH: B3 VHH with R44Q, S62D, E64K, T74S, A77T, M102L, M111L
notes: 18G11 second round variant with R44Q
B6: 21F06 (VHH)
VHH: EVQLVESGGGLVQAGGSLRLSCAASGRTYYLNAMGWFRQGPGKDREFVAAIDWSDGNKDYADSVKGRFTISRDNAKNTVYLQMNSLKPEDTAVYYCAADTPPWGPMIYIESYDSWGQGTQVTVSS
notes: c-myc, His6-tagged form as expressed; also called 21F6; HER3MS21F06
B7: HER3MS00049 (VHH)
VHH: B6 VHH with A14P, G40A, D44E, A75S, K87R, Q120L
notes: 21F06 basic + G40A + D44E; also called HER3MS0049

What was measured:
human HER4 [1] = target: T1, human HER4 (human, UniProt Q15303 26-1308); assay: FACS CHO-HER4, 222 nM
T1 sequence (Q15303 26-1308 limits assumed): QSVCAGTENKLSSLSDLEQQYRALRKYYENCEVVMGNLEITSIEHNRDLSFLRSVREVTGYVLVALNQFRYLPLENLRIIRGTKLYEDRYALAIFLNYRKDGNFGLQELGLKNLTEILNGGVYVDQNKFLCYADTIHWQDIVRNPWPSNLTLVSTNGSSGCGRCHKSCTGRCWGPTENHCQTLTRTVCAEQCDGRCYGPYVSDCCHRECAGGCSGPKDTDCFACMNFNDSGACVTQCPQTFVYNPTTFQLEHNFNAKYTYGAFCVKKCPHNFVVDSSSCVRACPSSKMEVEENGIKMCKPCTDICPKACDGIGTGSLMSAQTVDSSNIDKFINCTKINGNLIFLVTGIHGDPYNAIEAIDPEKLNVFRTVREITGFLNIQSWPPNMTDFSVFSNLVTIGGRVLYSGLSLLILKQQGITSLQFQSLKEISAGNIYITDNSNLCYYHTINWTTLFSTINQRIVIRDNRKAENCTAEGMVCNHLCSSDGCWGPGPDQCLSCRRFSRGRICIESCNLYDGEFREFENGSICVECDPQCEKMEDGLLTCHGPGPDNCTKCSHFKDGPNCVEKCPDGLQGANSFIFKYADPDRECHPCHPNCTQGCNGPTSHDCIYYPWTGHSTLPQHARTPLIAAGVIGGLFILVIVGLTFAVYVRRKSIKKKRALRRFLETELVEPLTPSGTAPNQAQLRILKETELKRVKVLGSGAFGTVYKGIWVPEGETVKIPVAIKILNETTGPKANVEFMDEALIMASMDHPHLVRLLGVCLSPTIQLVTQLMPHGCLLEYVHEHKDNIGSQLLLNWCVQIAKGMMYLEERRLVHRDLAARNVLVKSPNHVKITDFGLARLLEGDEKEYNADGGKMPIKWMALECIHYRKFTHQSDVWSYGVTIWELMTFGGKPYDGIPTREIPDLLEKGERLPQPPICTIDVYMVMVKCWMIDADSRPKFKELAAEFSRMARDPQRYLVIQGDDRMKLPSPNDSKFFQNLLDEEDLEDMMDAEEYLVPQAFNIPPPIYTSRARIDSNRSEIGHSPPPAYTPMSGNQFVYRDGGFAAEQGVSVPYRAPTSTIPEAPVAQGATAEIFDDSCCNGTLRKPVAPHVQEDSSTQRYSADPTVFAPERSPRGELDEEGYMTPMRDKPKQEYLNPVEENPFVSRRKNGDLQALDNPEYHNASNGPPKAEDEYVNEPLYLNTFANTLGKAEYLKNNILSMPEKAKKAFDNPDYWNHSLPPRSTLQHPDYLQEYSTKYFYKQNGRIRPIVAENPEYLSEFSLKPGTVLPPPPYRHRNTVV

human HER4 [2] = target: T1, human HER4; assay: FACS, CHO-HER4
[3] = target: T2, Chicken Her3 (AA1-25 human, AA26-642 chicken) (chicken (human signal sequence)); assay: FACS, HEK293 with chicken HER3
T2 construct: Transmembrane and extracellular regions only, on transiently transfected HEK293 cells; also called full length extracellular chicken HER3
T2 chain: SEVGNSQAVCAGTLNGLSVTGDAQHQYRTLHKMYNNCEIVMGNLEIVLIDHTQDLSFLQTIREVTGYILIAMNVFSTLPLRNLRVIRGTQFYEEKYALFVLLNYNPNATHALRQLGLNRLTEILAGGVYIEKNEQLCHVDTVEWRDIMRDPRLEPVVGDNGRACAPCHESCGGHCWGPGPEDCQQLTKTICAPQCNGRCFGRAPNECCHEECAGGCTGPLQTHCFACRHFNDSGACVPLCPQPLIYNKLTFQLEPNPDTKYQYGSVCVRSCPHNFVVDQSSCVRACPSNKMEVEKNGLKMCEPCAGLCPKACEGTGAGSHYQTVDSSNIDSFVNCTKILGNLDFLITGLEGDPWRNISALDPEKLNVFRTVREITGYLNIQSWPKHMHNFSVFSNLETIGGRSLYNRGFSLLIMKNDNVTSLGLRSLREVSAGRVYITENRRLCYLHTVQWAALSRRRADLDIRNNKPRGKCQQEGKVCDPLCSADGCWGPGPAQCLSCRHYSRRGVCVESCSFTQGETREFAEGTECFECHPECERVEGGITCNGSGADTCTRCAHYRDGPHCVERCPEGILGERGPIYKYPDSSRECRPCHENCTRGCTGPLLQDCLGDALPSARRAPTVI

human HER1 [4] = target: T3, human HER1 (human, UniProt P00533 25-1210); assay: FACS CHO-HER1, 2000 nM
T3 construct: also called EGFR; ErbB1

human HER4 [5] = target: T1, human HER4; assay: FACS CHO-HER4, 2000 nM
human HER1 [6] = target: T3, human HER1; assay: FACS CHO-HER1, 222 nM
hHER3 full length [7] = target: T4, hHER3 full length (human, UniProt P21860 20-1342); assay: FACS, 400 nM, competitor 17C08-biotin
T4 construct: On transfected CHO, CHO HER2/HER3, CHO EGFR/HER3 or CHO Flp-In cells; endogenous HER3 of MCF-7 and MDA-MB468 cells in the signalling assays; also called human HER3

hHER3 full length [8] = target: T4, hHER3 full length; assay: FACS, 400 nM, competitor 04C07-biotin
human HER2 [9] = target: T5, human HER2 (human, UniProt P04626 23-1255); assay: FACS, CHO-HER2
T5 construct: also called hHER2

human HER2 [10] = target: T5, human HER2; assay: FACS CHO-HER2, 667 nM
human HER2 [11] = target: T5, human HER2; assay: FACS CHO-HER2, 2000 nM
hHER3 full length [12] = target: T4, hHER3 full length; assay: FACS, 400 nM, competitor 23F05-biotin
human HER1 [13] = target: T3, human HER1; assay: FACS CHO-HER1, 667 nM
hHER3 full length [14] = target: T4, hHER3 full length; assay: cell-based or functional assay
[15] = target: T6, human HER3-Fc (R&D Systems, 348-RB) (human, UniProt P21860 20-643); assay: SPR, HER3-Fc captured by anti-Fc
T6 construct: Bought; also called hHER3-Fc; Fc-HER3; Fc part of the bought chimera not given, not described

human HER2 [16] = target: T5, human HER2; assay: FACS CHO-HER2, 222 nM
[17] = target: T7, hHER3 ECD (human HER3 extracellular domain) (human, UniProt P21860 20-643); assay: ELISA, coated hHER3-ECD
T7 construct: also called recombinant HER3-ECD

hHER3 full length [18] = target: T4, hHER3 full length; assay: FACS, 400 nM, competitor 04F10-biotin
hHER3 full length [19] = target: T4, hHER3 full length; assay: FACS, 400 nM, competitor 21B02-biotin
hHER3 full length [20] = target: T4, hHER3 full length; assay: cell-based or functional assay; remark: listed apart in the source
hHER3 full length [21] = target: T4, hHER3 full length; assay: FACS, 400 nM, competitor 18E08-biotin
human HER1 [22] = target: T3, human HER1; assay: FACS, CHO-HER1
human HER4 [23] = target: T1, human HER4; assay: FACS CHO-HER4, 667 nM
[24] = target: T8, cHER3ECD (Maccaca fascicularis HER3 extracellular domain) (Macaca fascicularis, UniProt P21860 20-643 (human entry)); assay: ELISA, coated cHER3-ECD
T8 construct: also called cyno HER3ECD; cyno HER3-ECD
T8 chain: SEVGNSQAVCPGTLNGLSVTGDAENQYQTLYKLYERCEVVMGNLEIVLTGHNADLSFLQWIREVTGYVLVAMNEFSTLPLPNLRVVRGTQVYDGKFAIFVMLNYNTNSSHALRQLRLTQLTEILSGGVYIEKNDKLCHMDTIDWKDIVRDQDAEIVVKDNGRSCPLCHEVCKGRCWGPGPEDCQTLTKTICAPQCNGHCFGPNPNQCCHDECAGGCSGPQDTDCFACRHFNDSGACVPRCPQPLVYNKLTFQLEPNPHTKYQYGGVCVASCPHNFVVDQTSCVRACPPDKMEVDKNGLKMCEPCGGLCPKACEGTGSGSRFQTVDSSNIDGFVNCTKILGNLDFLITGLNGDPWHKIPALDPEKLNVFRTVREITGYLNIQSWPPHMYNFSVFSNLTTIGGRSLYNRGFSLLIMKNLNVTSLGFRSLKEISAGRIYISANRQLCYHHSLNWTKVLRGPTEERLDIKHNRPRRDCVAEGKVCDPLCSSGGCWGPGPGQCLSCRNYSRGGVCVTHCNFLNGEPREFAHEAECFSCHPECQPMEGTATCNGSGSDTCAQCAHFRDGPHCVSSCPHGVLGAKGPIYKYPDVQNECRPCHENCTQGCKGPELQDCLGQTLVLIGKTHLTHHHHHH

hHER3 full length [25] = target: T4, hHER3 full length; assay: FACS competition with HRG1-β1-EGF, CHO-HER3
[26] = target: T6, human HER3-Fc (R&D Systems, 348-RB); assay: alphascreen, competitor biotinylated 18G11
[27] = target: T7, hHER3 ECD (human HER3 extracellular …); assay: SPR off rate
hHER3 full length [28] = target: T4, hHER3 full length; assay: cell-based or functional assay; remark: listed apart in the source
[29] = target: T6, human HER3-Fc (R&D Systems, 348-RB); assay: 18G11 competition alphascreen
hHER3 full length [30] = target: T4, hHER3 full length; assay: cell-based or functional assay; remark: listed apart in the source
[31] = target: T6, human HER3-Fc (R&D Systems, 348-RB); assay: HRG competition alphascreen
[32] = target: T6, human HER3-Fc (R&D Systems, 348-RB); assay: HRG competition alphascreen; remark: listed apart in the source

Binder | MCF (human HER4 [1]) | binding result (human HER4 [2]) | binding result [3] | MCF (human HER1 [4]) | MCF (human HER4 [5]) | MCF (human HER1 [6]) | % competition (hHER3 full length [7]) [%] | % competition (hHER3 full length [8]) [%] | MCF (human HER2 [10]) | MCF (human HER2 [11]) | % competition (hHER3 full length [12]) [%] | MCF (human HER1 [13]) | IC50, HRG1-β1 induced pHER3, MCF-7 (hHER3 full length [14]) [M] | IC50, HRG1-β1 induced pHER3, MDA-MB468 (hHER3 full length [14]) [M] | Kd [15] [nM] | kon [15] [M⁻¹ s⁻¹] | MCF (human HER2 [16]) | EC50 [17] [nM] | % competition (hHER3 full length [18]) [%] | % competition (hHER3 full length [19]) [%] | also measured
B1 | 343 | no binding (tested: 2000 nM) | binds | 67 | 95 | 153 | 8 | 6 | 264 | 832 | 100 | 67 | 1.77e-08 | 2.41e-08 | 0.99 | 3.1e+06 | 97 | 0.46 | 15 | 100 | binding result (human HER2 [9]): no binding (tested: 2000 nM); IC50, HRG1-β1 induced pAkt, MCF-7 (hHER3 full length [20]): 4.65e-08 M; inhibition of HRG1-β1 induced pERK1/2, MCF-7 (hHER3 full length [20]): < 50 % inhibition; % competition (hHER3 full length [21]): 16%; binding result (human HER1 [22]): no binding (tested: 2000 nM); MCF (human HER4 [23]): 101; EC50 [24]: 0.44 nM; IC50 (hHER3 full length [25]): 9.44 nM
B2 | 91 | no binding (tested: 2000 nM) | binds | 53 | 273 | 64 | 17 | 10 | 3610 | 8570 | 98 | 64 | 4.88e-08 | 9.99e-08 | 1.22 | 2.2e+06 | 1340 | 1.1 | 15 | 100 | IC50, HRG1-β1 induced pAkt, MCF-7 (hHER3 full length [20]): 6.9e-08 M; inhibition of HRG1-β1 induced pERK1/2, MCF-7 (hHER3 full length [20]): < 50 % inhibition; % competition (hHER3 full length [21]): 20%; binding result (human HER1 [22]): no binding (tested: 2000 nM); MCF (human HER4 [23]): 119; EC50 [24]: 0.9 nM; IC50 (hHER3 full length [25]): 13.3 nM
B3 | – | – | – | – | – | – | – | – | – | – | – | – | – | – | – | – | – | – | – | – | IC50 [26]: 3.2 nM
B4 | – | – | – | – | – | – | – | – | – | – | – | – | – | – | – | – | – | – | – | – | koff [27]: 0.00072 s⁻¹; IC50 pHER3 blocking, HRG stimulated MCF7 (hHER3 full length [28]): 1.79e-08 M and 2e-08 M; IC50 [29]: 5.4 nM
B5 | – | – | – | – | – | – | – | – | – | – | – | – | – | – | – | – | – | – | – | – | koff [27]: 0.0012 s⁻¹; IC50 [29]: 14 nM
B6 | 149 | no binding (tested: 2000 nM) | binds | 74 | 263 | 107 | 9 | 11 | 229 | 409 | 100 | 110 | 6.79e-09 | 7.94e-09 | 0.12 | 1.8e+07 | 84 | 0.3 | 15 | 100 | binding result (human HER2 [9]): no binding (tested: 2000 nM); IC50 pHER3, HRG1-β1 stimulated MCF7 (hHER3 full length [30]): 8.74e-09 M; IC50 [31]: 0.25 nM; IC50, HRG1-β1 induced pAkt, MCF-7 (hHER3 full length [20]): 2.31e-08 M; IC50, HRG1-β1 induced pERK1/2, MCF-7 (hHER3 full length [20]): 1.11e-07 M; binding result (human HER1 [22]): no binding (tested: 2000 nM); % inhibition [32]: 104%; IC50 [32]: 0.0135 nM; MCF (human HER4 [23]): 225; EC50 [24]: 0.32 nM; IC50 (hHER3 full length [25]): 10.1 nM
B7 | – | – | – | – | – | – | – | – | – | – | – | – | – | – | – | – | – | – | – | – | IC50 pHER3, HRG1-β1 stimulated MCF7 (hHER3 full length [30]): 2.79e-09 M; IC50 [31]: 0.25 nM
